Measured values from US20220213209A1 (JOINT STOCK COMPANY BIOCAD, published 2022).
Numbering of substitutions follows the chain as printed. In names and notes the source's numbering stands.

T1: macaca mulatta GITR (Macaca mulatta, UniProt F7DDV8 20-156)
T1 construct: also called rhesus macaque GITR; mcyGITR Macaca mulatta
T1 sequence: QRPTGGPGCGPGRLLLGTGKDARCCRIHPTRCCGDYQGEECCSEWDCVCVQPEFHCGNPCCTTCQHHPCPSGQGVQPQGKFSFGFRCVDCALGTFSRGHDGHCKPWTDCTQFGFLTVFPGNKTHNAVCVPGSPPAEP

T2: murine GITR-Fc (Mus musculus, UniProt O35714 20-153)
T2 construct: extracellular domain; also called mouse GITR; musGITR
T2 sequence (looked up): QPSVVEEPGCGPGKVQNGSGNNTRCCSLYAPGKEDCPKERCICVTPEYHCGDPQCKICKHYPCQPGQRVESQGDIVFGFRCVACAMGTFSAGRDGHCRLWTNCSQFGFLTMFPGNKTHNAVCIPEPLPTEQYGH

T3: recombinant human GITR antigen (extracellular domain) (human, UniProt Q9Y5U5 26-162)
T3 construct: extracellular domain
T3 sequence (looked up): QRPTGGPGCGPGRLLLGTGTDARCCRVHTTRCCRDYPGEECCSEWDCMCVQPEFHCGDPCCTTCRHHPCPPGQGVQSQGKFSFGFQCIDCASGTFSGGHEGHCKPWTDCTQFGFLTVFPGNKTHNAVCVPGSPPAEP

T4: GITR stably expressed on the surface of HEK-293 cells (UniProt Q9Y5U5 26-241)
T4 sequence (looked up): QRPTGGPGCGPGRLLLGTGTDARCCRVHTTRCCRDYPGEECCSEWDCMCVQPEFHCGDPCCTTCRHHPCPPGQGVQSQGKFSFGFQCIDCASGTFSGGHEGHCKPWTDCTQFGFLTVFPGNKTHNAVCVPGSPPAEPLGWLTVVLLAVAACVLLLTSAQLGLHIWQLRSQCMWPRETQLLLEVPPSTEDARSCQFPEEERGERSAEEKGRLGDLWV

T5: human FcgRIIa131H (human, UniProt P12318 36-218, biotinylated (site not stated))
T5 construct: Biotinylated receptor on streptavidin sensors
T5 sequence (looked up): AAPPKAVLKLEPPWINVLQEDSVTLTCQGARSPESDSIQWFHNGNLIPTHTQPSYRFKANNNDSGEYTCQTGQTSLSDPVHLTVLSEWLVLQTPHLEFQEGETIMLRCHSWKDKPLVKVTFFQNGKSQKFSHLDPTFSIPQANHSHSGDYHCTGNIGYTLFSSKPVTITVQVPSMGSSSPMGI

T6: human FcgRIIb (human, UniProt P31994 43-217, biotinylated (site not stated))
T6 construct: Biotinylated receptor on streptavidin sensors
T6 sequence (looked up): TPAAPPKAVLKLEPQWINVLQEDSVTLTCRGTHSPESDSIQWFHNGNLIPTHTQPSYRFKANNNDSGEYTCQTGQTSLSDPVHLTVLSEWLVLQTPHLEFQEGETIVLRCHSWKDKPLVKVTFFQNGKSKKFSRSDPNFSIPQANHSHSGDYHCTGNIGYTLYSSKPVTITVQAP

T7: human FcgRIIa131R (human, UniProt P12318 36-218, biotinylated (site not stated))
T7 construct: Biotinylated receptor on streptavidin sensors
T7 sequence (looked up): T5 sequence (looked up) with H132R

B1: BCD166-01-014 (antibody, human IgG1, lambda, V domains shown)
VH: QVQLVQSGGGLVQPGGSLRLSCAASGFTFSYYWMYWVRQAPGKGLEWVSAISWNGGRTYYAESMKGRFTISRDNAQNTLYLQMNSLKSEDTAVYYCAKNRYYSDPNYGMNLWGKGTTVTVSS
VL: QSALTQPASVSGSPGQSITISCTGTSTDIGTYKYISWYQQHPGKAPKLIIYGVSHRPSGVSDRFSGSKSDNTASLTISGLQAEDEADYYCSSYTSSGTVVFGGGTKVTVLG
notes: Full-length IgG1, lambda light chain; from an immune llama-human CHARM Fab library; also called BCD166-01-14
B2: BCD166-02-01 (antibody, human IgG1, kappa)
heavy: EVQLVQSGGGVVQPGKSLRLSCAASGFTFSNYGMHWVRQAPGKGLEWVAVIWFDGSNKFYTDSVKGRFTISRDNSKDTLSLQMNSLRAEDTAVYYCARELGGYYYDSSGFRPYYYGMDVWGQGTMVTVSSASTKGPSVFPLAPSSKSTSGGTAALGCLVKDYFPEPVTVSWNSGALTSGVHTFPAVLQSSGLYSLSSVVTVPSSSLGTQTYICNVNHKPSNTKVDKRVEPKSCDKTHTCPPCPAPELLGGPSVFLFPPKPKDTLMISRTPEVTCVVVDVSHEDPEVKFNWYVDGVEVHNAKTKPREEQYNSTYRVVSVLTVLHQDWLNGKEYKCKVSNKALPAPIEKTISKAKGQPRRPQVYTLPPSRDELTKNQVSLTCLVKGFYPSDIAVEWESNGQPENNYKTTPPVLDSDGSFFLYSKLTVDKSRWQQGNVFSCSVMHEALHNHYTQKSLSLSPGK
light: DVVMTQSPSSVSASVGDRVTITCRASQSIGSWLAWYQQKPGEAPKLLIYAASTLQRGVPSRFSGGGYGTEFTLTISSLQPEDFATYFCQQSHSHPLTFGGGTKVEIKRTVAAPSVFIFPPSDEQLKSGTASVVCLLNNFYPREAKVQWKVDNALQSGNSQESVTEQDSKDSTYSLSSTLTLSKADYEKHKVYACEVTHQGLSSPVTKSFNRGEC
notes: BCD166-01-01 with the E345R mutation (EU numbering) in the IgG1 Fc; also called BCD166-02-001
B3: BCD166-01-01 (antibody, human IgG1, kappa)
heavy: not shown
light: B2 light
notes: Full-length human IgG1, kappa; also called BCD166-01-001; BCD166-NHVKITSe13-5-H3-25

Experiments:
macaca mulatta GITR = target: T1, macaca mulatta GITR; experiment: BLI OctetRed 96, antigen on AR2G sensors, antibody in solution, 1:1 model
Protocol: (§1) Binding affinity constants for anti-GITR antibodies and rhesus macaque/cynomolgus monkey GITR were obtained using OctetRed 96 according to manufacturer's (ForteBio) protocol. Antigen 25 μg/ml was non-specifically immobilized onto the surface of amine-reactive sensors of the second generation (AR2G) (ForteBio, using standard protocol according to manufacturer's instructions for preparation and immobilization of AR2G sensors). […] The assay was conducted at 30° C. using PBS comprising 0.1% Tween-20 and 0.1% BSA as a working buffer.
(§2) The resulting sensograms, after subtracting a reference signal, were analyzed using Octet Data Analysis software (Version 8.0) in accordance with the standard procedure and using 1:1 interaction model.

macaca Cynomolgus GITR = target: T8, macaca Cynomolgus GITR (Macaca cynomolgus); experiment: as above
T8 construct: also called cynomolgus monkey GITR; monkey GITR
Protocol: as §1, §2

murine GITR-Fc = target: T2, murine GITR-Fc; experiment: ELISA, plate coated with mouse GITR-Fc 0.5 µg/ml, antibody titrated 10 to 0.02 µg/ml
Protocol: ELISA was used to measure relative affinity of antibodies against GITR-Fc from different organisms. For binding assay, ELISA plate wells (medium binding from Greiner bio one) were coated with 50 μl of human/cynomolgus/murine GITR-Fc (0.5 μg/ml in 1× carbonate buffer), sealed and incubated overnight at 4° C. All further steps were performed in accordance with the standard ELISA protocol described in Example 6. […] Therefore, candidate BCD166-01-011 was excluded from further study due to the lack of apparent specificity for the monkey GITR. Candidates BCD166-01-01 and BCD166-01-014 were finalized for further development.

[1] = target: T3, recombinant human GITR antigen …; experiment: BLI OctetRed 96, antigen on AR2G sensors, antibody in solution, 1:1 model
Protocol: Binding affinity constants for anti-GITR antibody-human/rhesus macaque/cynomolgus monkey GITR interactions were determined using OctetRed 96 according to manufacturer (ForteBio) protocol. Antigen 25 μg/ml was non-specifically immobilized onto the surface of amine-reactive sensors of the second generation (AR2G) (ForteBio, using standard protocol according to manufacturer's instructions for preparation and immobilization of AR2G sensors). […] The assay was conducted at 30° C. using PBS comprising 0.1% Tween-20 and 0.1% BSA as a working buffer.
The resulting sensograms, after subtracting a reference signal, were analyzed using Octet Data Analysis software (Version 8.0) in accordance with the standard procedure and using 1:1 interaction model. All tested antibodies show high affinity and specificity for human GITR.

[2] = target: T4, GITR stably expressed on the surface of …; experiment: cell-based or functional assay
human FcRn = target: T9, human FcRn (human, UniProt P55899 24-297; P61769 21-119, biotinylated (site not stated)); experiment: bio-layer interferometry (OctetRed 96), biotinylated receptor on streptavidin sensors, antibody in solution, pH 6 buffer, 30 °C
T9 construct: Biotinylated receptor on streptavidin sensors
Protocol: (§3) The binding affinity constants for antibody BCD166-02-01-human FcRn, FcgRIIIa158V, FcgRIIIa158F, FcgRIIa131H, FcgRIIa131R, FcgRIIb and FcgRIa interactions were determined using OctetRed 96 (ForteBio). Biotinylated receptors were immobilized on the surface of streptavidin sensors (SA). We conducted and analyzed the association and dissociation between receptors and antibody in a working buffer (PBS containing 0.1% Tween-20 and 0.1% BSA: for FcRn receptor we used pH6 buffer, for the other receptors we used pH 7.4 buffer) at 30° C. The resulting sensograms were analyzed in accordance with 1:1 or 2:1 models, the affinity constants were calculated using Octet Data Analysis Software 8.0 User Guide Copyright 2011©.

human FcgRIIa131H = target: T5, human FcgRIIa131H; experiment: bio-layer interferometry (OctetRed 96), biotinylated receptor on streptavidin sensors, antibody in solution, pH 7.4 buffer, 30 °C
Protocol: as §3

human FcgRIIb = target: T6, human FcgRIIb; experiment: as above
Protocol: as §3

human FcgRIIIa158V = target: T10, human FcgRIIIa158V (human, UniProt P08637 17-208, biotinylated (site not stated)); experiment: as above
T10 construct: Biotinylated receptor on streptavidin sensors
Protocol: as §3

human FcgRIIa131R = target: T7, human FcgRIIa131R; experiment: as above
Protocol: as §3

human FcgRIa = target: T11, human FcgRIa (human, UniProt P12314 16-288, limits assumed, biotinylated (site not stated)); experiment: as above
T11 construct: Biotinylated receptor on streptavidin sensors
Protocol: as §3

human FcgRIIIa158F = target: T12, human FcgRIIIa158F (human, UniProt P08637 17-208, biotinylated (site not stated)); experiment: as above
T12 construct: Biotinylated receptor on streptavidin sensors
Protocol: as §3

T10 sequence (P08637 17-208 F176V limits assumed): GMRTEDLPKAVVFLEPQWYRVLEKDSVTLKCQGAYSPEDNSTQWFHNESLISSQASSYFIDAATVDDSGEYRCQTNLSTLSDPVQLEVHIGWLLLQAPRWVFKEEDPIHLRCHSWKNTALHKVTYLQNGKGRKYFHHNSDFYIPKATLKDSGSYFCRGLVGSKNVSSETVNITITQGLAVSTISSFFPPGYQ
T12 sequence (P08637 17-208 limits assumed): as the sequence (P08637 17-208 F176V limits assumed) above, with V160F counted along it
T11 sequence (P12314 16-288 limits assumed): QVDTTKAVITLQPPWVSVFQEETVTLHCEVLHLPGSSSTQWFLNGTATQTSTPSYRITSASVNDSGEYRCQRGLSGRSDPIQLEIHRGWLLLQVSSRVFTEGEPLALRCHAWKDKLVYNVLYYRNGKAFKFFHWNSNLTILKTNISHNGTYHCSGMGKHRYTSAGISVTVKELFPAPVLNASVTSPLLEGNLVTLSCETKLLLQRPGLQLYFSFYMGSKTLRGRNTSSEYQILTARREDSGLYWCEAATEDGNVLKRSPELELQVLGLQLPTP
T9 sequence (P55899 24-297 limits assumed, chain 1 of 2): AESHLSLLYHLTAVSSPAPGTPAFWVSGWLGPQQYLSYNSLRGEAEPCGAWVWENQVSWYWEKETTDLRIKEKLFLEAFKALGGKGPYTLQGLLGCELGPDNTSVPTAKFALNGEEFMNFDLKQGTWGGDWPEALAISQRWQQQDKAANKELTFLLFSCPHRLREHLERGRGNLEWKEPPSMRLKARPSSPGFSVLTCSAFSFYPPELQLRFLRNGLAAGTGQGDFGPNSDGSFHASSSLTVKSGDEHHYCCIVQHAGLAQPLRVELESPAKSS
T9 sequence (P61769 21-119 limits assumed, chain 2 of 2): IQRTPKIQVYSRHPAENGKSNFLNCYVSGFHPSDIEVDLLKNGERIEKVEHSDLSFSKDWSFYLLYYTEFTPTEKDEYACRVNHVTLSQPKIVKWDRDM

Row | Binder | Kd (macaca mulatta GITR) | Kd (macaca Cynomolgus GITR) | binding result (murine GITR-Fc) | Kd [1] | EC50 in ADCC reporter assay (Jurkat-NFAT-Luc-CD16 effector cells, Hek-293-GITR target cells) [2] | EC50 in cell agonist assay (HEK293-GITR-NFkB-Luc) [2] | level of activation in cell agonist assay (HEK293-GITR-NFkB-Luc) [2] | Kd (human FcRn) | Kd (human FcgRIIa131H) | Kd (human FcgRIIb) | Kd (human FcgRIIIa158V) | Kd (human FcgRIIa131R) | Kd (human FcgRIa) | Kd (human FcgRIIIa158F)
1 | B1 | 0.192 nM | 55.3 nM | no binding (tested: 10 µg/ml) | 8.5 nM |  |  |  |  |  |  |  |  |  | 
2 | B2 |  |  |  |  | 40 fold, against BCD166-01-01 | 20 fold, against BCD166-01-01 | 5 fold, against BCD166-01-01 | 27 nM | 72.2 nM | 557 nM | 118 nM | 40.2 nM | 0.723 nM | 1420 nM
3 | B3 | 0.0924 nM | 0.542 nM | no binding (tested: 10 µg/ml) | 0.0638 nM |  |  |  |  |  |  |  |  |  | 
